± gives the standard error.
B1: library; numbered along this chain (parent)
chain: MATDAALRRLLRLHRTEIAVAVDSAFPLLHALADHDVVPEDKFQETLHLKEKEGCPQAFHALLSWLLTQDSTAILDFWRVLFKDYNLERYGRLQPILDSFPKDVDLSQPRKGRKPPAVPKALVPPPRLPTKRKASEEARAAAPAALTPRGTASPGSQLKAKPPKKPESSAEQQRLPLGNGIQTMSASVQRAVAMSSGDVPGARGAVEGILIQQVFESGGSKKCIQVGGEFYTPSKFEDSGSGKNKARSSSGPKPLVRAKGAQGAAPGGGEARLGQQGSVPAPLALPSDPQLHQKNEDECAVCRDGGELICCDGCPRAFHLACLSPPLREIPSGTWRCSSCLQATVQEVQPRAEEPRPQEPPVETPLPPGLRSAGEEVRGPPGEPLAGMDTTLVYKHLPAPPSAAPLPGLDSSALHPLLCVGPEGQQNLAPGARCGVCGDGTDVLRCTHCAAAFHWRCHFPAGTSRPGTGLRCRSCSGDVTPAPVEGVLAPSPARLAPGPAKDDTASHEPALHRDDLESLLSEHTFDGILQWAIQSMARPAAPFPS

Variants of: B1
Assay: AIRE transcriptional activation functional score (insulin promoter-GFP; nonsense median 0, synonymous median 1) (normalised score); higher = higher AIRE activity (more reporter activation)
Settings: with insulin promoter-GFP reporter in HEK293
Procedure: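 Deep mutational scan of full-length human AIRE (codon-optimized cDNA, DT-POPCode NNN libraries over three regions) integrated at a Bxb1 landing pad in HEK293 cells carrying an insulin core promoter-GFP reporter at a Flp-In site. Cells were sorted for the top 10% GFP about 14 days after transfection. Variant frequency log-ratios (select vs non-select, TileSeq) were rescaled so that the nonsense median is 0 and the synonymous median is 1, then averaged over biological replicates.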

AIRE transcriptional activation functional score of substitutions, site by site:
F236: N 1.68 ± 0.29 | T -0.222 ± 0.095 | M -0.434 ± 0.082 | P 0.266 ± 0.28 | C 0.925 ± 0.18 | A 1.03 ± 0.3 | W 1.44 ± 0.082 | I 1.01 ± 0.17 | Y 0.564 ± 0.59 | K 0.0925 ± 0.14 | V 0.877 ± 0.39 | R 0.401 ± 0.25 | L 0.651 ± 0.31 | G 0.726 ± 0.27 | S 0.712 ± 0.16
S239: E 0.783 ± 0.084 | H 1.27 ± 0.098 | I 0.737 ± 0.38 | N 1.4 ± 0.38 | W 1.37 ± 0.059 | K -0.0573 ± 0.21 | D 0.131 ± 0.14 | M 1.69 ± 0.09 | R 1.13 ± 0.21 | G 1.05 ± 0.19 | F 1.06 ± 0.33 | A 1.2 ± 0.52 | P 1.06 ± 0.48 | V 1.13 ± 0.54 | Y 1.43 ± 0.23 | T 1.17 ± 0.23 | C 1.16 ± 0.37 | L 1.31 ± 0.34
R247: T 0.898 ± 0.24 | E 1.52 ± 0.14 | Q 0.669 ± 0.11 | W 0.502 ± 0.025 | A 0.732 ± 0.44 | V 1.16 ± 0.41 | P 0.344 ± 0.24 | M 1.42 ± 0.11 | H -1.26 ± 0.54 | L 0.895 ± 0.3 | I 0.937 ± 0.15 | S 0.966 ± 0.39 | C 1.05 ± 0.71 | N 0.919 ± 0.15 | K 1.2 ± 0.35 | F 0.902 ± 0.26 | G 0.529 ± 0.32 | Y 0.724 ± 0.25 | D 0.268 ± 0.11
G240: F 0.96 ± 0.081 | Y -0.451 ± 0.065 | N 1.96 ± 0.076 | I 0.539 ± 0.24 | R 1.01 ± 0.24 | P 0.78 ± 0.63 | M 1.08 ± 0.075 | A 0.723 ± 0.28 | L 1.2 ± 0.051 | H 0.0803 ± 0.12 | V 0.921 ± 0.076 | W 1.09 ± 0.12 | S 1.1 ± 0.27 | K 1.07 ± 0.15 | Q 0.0726 ± 0.14 | C 0.742 ± 0.1 | T 1.47 ± 0.067 | E 0.406 ± 0.48
E237: L 1.16 ± 0.34 | G 1.06 ± 0.24 | Q 1.03 ± 0.043 | D 0.996 ± 0.086 | C 1.16 ± 0.11 | A 1.08 ± 0.18 | W 0.832 ± 0.035 | M 1.3 ± 0.031 | R 0.603 ± 0.38 | Y 0.617 ± 0.2 | H 0.943 ± 0.14 | I 0.885 ± 0.075 | F -1.02 ± 0.4 | V 1.19 ± 0.12 | S 0.791 ± 0.32 | P 0.729 ± 0.18 | T 0.952 ± 0.1 | K 0.979 ± 0.16
S241: I 1.06 ± 0.23 | Q 0.992 ± 0.3 | T 1.11 ± 0.25 | C 1.11 ± 0.12 | A 0.598 ± 0.15 | Y 1.12 ± 0.024 | P 1.31 ± 0.14 | L 1.17 ± 0.26 | M 1.1 ± 0.066 | G 0.897 ± 0.38 | N 1.13 ± 0.16 | R 0.436 ± 0.41 | W 0.868 ± 0.021 | V 0.868 ± 0.2 | K 0.301 ± 0.13 | D 1.13 ± 0.051 | F 1.2 ± 0.074 | E 1.29 ± 0.38 | H 0.567 ± 0.047
K245: R 0.472 ± 0.41 | V 1.32 ± 0.035 | P 1.07 ± 0.11 | E 0.245 ± 0.28 | H 1.35 ± 0.17 | G 0.76 ± 0.17 | S 0.252 ± 0.21 | N 0.375 ± 0.48 | D 0.145 ± 0.075 | M 0.0585 ± 0.082 | Q 0.887 ± 0.36 | I 0.196 ± 0.051 | T -0.0733 ± 0.24 | F 1.67 ± 0.089 | A 1.33 ± 0.067 | W 0.978 ± 0.06 | Y 1.21 ± 0.1 | L 0.453 ± 0.31 | C 1 ± 0.14
S249: Q 0.961 ± 0.049 | F 0.707 ± 0.2 | I 1.25 ± 0.41 | G 1.22 ± 0.26 | A 1.07 ± 0.25 | H 0.402 ± 0.24 | L 0.67 ± 0.15 | E -0.0377 ± 0.067 | T 0.256 ± 0.25 | M 1.28 ± 0.083 | R -0.21 ± 0.29 | W 1.81 ± 0.072 | C 1.33 ± 0.2 | D 0.114 ± 0.48 | N 0.548 ± 0.067 | P 0.451 ± 0.43 | Y 0.973 ± 0.036 | V 1.12 ± 0.18
S248: R 0.215 ± 0.44 | Q 0.368 ± 0.26 | P 1.33 ± 0.28 | Y 1.07 ± 0.27 | M 1.01 ± 0.041 | L 1.11 ± 0.31 | E 0.474 ± 0.14 | C 1.03 ± 0.18 | A 0.947 ± 0.56 | K 0.517 ± 0.079 | D 1.25 ± 0.58 | G 1.13 ± 0.26 | V 0.819 ± 0.23 | N 0.778 ± 0.22 | I 1.16 ± 0.17 | T 0.975 ± 0.46 | F 1.09 ± 0.22 | W 1.01 ± 0.026
D238: P 1.5 ± 0.35 | G 1 ± 0.29 | Y 1.12 ± 0.07 | E 0.685 ± 0.32 | Q 0.948 ± 0.16
